target: bovine TAP1 (bovine); assay: cell-based or functional assay

Row | Binder | MHC-I surface expression on infected MDBK cells (FACS) [%] | MHC-I surface expression relative to BHV-1 wt-infected MDBK cells [fold] | inhibition of TAP-mediated peptide transport in infected MDBK cells at 8 hpi (FITC peptide, FACS) [%] | peptide transport at 8 hpi relative to BHV-1 wt-infected MDBK cells [fold]
1 | BHV-1 UL49.5Δ30-32 CT-null (other) DPLLDAMGAMDFWSAGCYARGVPLSEPPQALVVFYVALTAVMVAVALYAYGLCF | 88.6 | 2.5 | 7 | ~6
2 | BHV-1 UL49.5Δ30-32 (other) DPLLDAMGAMDFWSAGCYARGVPLSEPPQALVVFYVALTAVMVAVALYAYGLCFRLMGASGPNKKESRGRG | 74.3 | 2 | 23 | 4
3 | BHV-1 wt UL49.5 (glycoprotein N) (other) DPLLDAMRREGAMDFWSAGCYARGVPLSEPPQALVVFYVALTAVMVAVALYAYGLCFRLMGASGPNKKESRGRG | 36.2 |  | 84 | 
4 | BHV-1 UL49.5 30AAA32 (other) DPLLDAMAAAGAMDFWSAGCYARGVPLSEPPQALVVFYVALTAVMVAVALYAYGLCFRLMGASGPNKKESRGRG | 75 | 2 | 27 | 4
5 | BHV-1 UL49.5 30AAA32 CT-null (other) DPLLDAMAAAGAMDFWSAGCYARGVPLSEPPQALVVFYVALTAVMVAVALYAYGLCF | 89.1 | 2.5 | 10 | ~6
6 | BHV-1 UL49.5 CT-null (other) DPLLDAMRREGAMDFWSAGCYARGVPLSEPPQALVVFYVALTAVMVAVALYAYGLCF | 49.6 | 1.3 | 63 | 2.5
